Consider four molecules from patent US20200123265A1 (AGENUS, published 2020).

Residue numbers refer to the chain shown, from its start. In names and notes the source's numbering stands.

In assay [1] the target is T1, GITR antigen (R&D systems, disulfide-linked homodimer; 689-GR) (human, UniProt Q9Y5U5 26-161, R-PE labeled in the Luminex assay; amine-coupled to a CM5 chip in the SPR assay).
T1 construct: Bought reagent; also called R-PE labeled GITR antigen
T1 sequence (looked up): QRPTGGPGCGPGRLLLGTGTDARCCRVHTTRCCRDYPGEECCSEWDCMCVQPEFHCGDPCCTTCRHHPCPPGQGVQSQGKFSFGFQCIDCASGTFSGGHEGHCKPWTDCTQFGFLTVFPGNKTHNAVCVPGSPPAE
Briefly: SPR (BIAcore), GITR immobilized on CM5 chip, antibody at 300 nM, applied after 231-32-15. Here is the method:
(§1) For epitope binning using surface plasmon resonance the “in tandem approach” was used (Abdiche, Y N et al., Analytical Biochemistry 386: 172-180 (2009)). For that purpose different chip surfaces were generated on a CM5 sensor chip (GE Healthcare, Series S CM5, BR-1005-30) using immobilization of different densities of GITR antigen (R&D systems, disulfide-linked homodimer; 689-GR). Flow cell 2 contained GITR antigen in low density (667 RU), medium density was assessed in flow cell 3 (1595 RU) and in flow cell 4, high density was achieved (4371 RU). In flow cell 1, ovalbumin (1289 RU, Pierce ThermoFisher 77120) was immobilized for reference. Immobilization was performed according to a standard protocol from the manufacturer (GE Healthcare) for amine coupling (activation of surface with 0.4 M EDC and 0.1 M NHS, GE Healthcare Amine coupling kit, BR-1000-50). Unreacted groups were inactivated with 1 M ethanol-amine-HCA, pH8.5. Afterwards anti-GITR antibodies were run through the different surfaces at a concentration of 300 nM (45 μg/ml) for 240 seconds at 5 μl/min. […] A dissociation time of 60 seconds was included before adding the competing antibody (300 nM, 5 μl/min).

Assay [2] has as its target T2, human GITR G63A mutant, expressed on 1624-5 cells (human, UniProt Q9Y5U5 26-241).
T2 chain: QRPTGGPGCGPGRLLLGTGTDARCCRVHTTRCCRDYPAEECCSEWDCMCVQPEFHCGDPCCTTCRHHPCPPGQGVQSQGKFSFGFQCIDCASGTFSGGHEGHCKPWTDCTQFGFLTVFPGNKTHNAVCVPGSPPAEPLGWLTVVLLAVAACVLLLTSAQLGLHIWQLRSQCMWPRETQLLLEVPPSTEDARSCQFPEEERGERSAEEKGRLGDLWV
Briefly: flow cytometry on 1624-5 cells, 2 µg/ml, MFI ratio (monoclonal/polyclonal) of mutant against wild type. Here is the method: (§2) All the mean fluorescence intensity (MFI) values were calculated as the mean of two measurements.
(§3) The percentages shown in FIG. 6B are the percentages of GITR positive cells in each plot.

The target in assay [3] is T3, human GITR D60A mutant, expressed on 1624-5 cells (human, UniProt Q9Y5U5 26-241).
T3 chain: T2 chain with D35A, A38G
Described as above. Here is the method: as §2, §3

Assay [4] addresses T1, GITR antigen (R&D systems, …). Briefly: SPR (BIAcore), GITR immobilized on CM5 chip, antibody at 300 nM, in tandem binning. Here is the method:
as §1

Assay [5] concerns the target T4, V1M/Q62P/S63G cynomolgus GITR, expressed on 1624-5 cells (cynomolgus, UniProt Q9Y5U5 26-241 (human entry)).
T4 construct: V1M lies in the signal peptide and is left out with it; also called mutant cynomolgus GITR V1M/Q62P/S63G
T4 chain: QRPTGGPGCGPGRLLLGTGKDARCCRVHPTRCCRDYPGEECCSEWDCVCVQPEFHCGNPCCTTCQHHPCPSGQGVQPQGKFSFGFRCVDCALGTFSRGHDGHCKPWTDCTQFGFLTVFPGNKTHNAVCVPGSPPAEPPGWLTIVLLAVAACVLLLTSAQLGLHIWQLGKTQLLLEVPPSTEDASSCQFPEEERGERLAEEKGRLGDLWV
Description: flow cytometry on 1624-5 cells, 2 µg/ml. An excerpt: (§4) As further evidence for the binding characteristics of the anti-GITR antibodies, the binding of the antibodies to cynomolgus GITR was compared. The immature protein of cynomolgus GITR comprises the amino acid sequence of SEQ ID NO: 44. To increase protein expression, the first residue of the signal peptide of cynomolgus GITR was replaced by methionine, generating V1M cynomolgus GITR. A mutant cynomolgus GITR V1M/Q62P/S63G, where the amino acid residues at the positions 62 and 63 (GlnSer), numbered according to SEQ ID NO: 44, were replaced by the corresponding residues in human GITR (ProGly), was then generated. FIG. 7A is a sequence alignment between human GITR, V1M cynomolgus GITR, and V1M/Q62P/S63G cynomolgus GITR.

In assay [6] the target is T5, V1M cynomolgus GITR, expressed on 1624-5 cells (cynomolgus, UniProt Q9Y5U5 26-241 (human entry)).
T5 chain: T4 chain with P37Q, G38S
Briefly: flow cytometry on 1624-5 cells.
Excerpt: as §4

Assay [7] deals with T1, GITR antigen (R&D systems, …). Description: Luminex suspension array, 20 µg/ml competitor pre-incubated with R-PE labeled GITR; captured antibody 231-32-15. Here is the method: The bead mixture and the antigen/antibody mixture were mixed 1:1 (20 μl from each) and incubated for one additional hour under shaking conditions (20° C., 650rpm), Directly before the measurement, 40 μl of assay buffer was added to each well and analysis was performed using a Luminex® 200 system (Millipore) and a readout of 100 beads in 48 μl sample volume. Binding was determined using the […] values of the non-competed control (100% binding, only assay buffer as competing compound).

B1: m6C8 (antibody, V domains shown)
VH: QVTLKESGPGILKPSQTLSLTCSFSGFSLSTSGMGVGWIRQPSGKGLEWLAHIWWDDDKYYNPSLKSQLTISKDTSRNQVFLKITSVDTADAATYYCARTRRYFPFAYWGQGTLVTVSS
VL: DIVMTQSQKFMSTSVGDRVSVTCKASQNVGTNVAWYQQKPGQSPKALIYSASYRYSGVPDRFTGSGSGTDFTLTINNVHSEDLAEYFCQQYNTDPLTFGAGTKLEIK
notes: Generated based on the variable regions of antibody 6C8 of WO 06/105021; also called murine antibody 6C8
On to B1, for which the binding result in assay [1] is “binds”. Moreover, the “percentage of increase in binding relative to wild type GITR” value in assay [2] was found to be 62%. Also, the “percentage of reduction in binding relative to wild type GITR” value in assay [3] is 10%.

B2: chimeric parental 231-32-15 antibody (antibody, V domains shown)
VH: QVQLLQSGTELVRPGVSVKISCKGSGYTFTDYAMYWVKQSHAKSLEWIGVIRTYSGDVTYNQKFKDKATMTVDKSSSIAYMELARLSSEDSAIYYCAKSGTVRGFAYWGQGTLVTVSS
VL: DIVMTQSPSSLTVTAGEKVIMSCKSSQSLLNSGNQKNYLTWYQQKPGQPPKLLIYWASTRESGVPDRFTGSGSGTDFTLTISSVQAEDLAVYHCQNDYSYPYTFGGGTKLEIK
notes: elsewhere it was used as soluble antibody
In the case of B2, the results for the binding result in assay [4], in assay [5] and in assay [6] were “binds”, “binds” and “no binding (tested: 2 µg/ml)”, respectively. Also, the results for the “percentage of reduction in binding relative to wild type GITR” value in assay [2] and in assay [3] were 37% and 82%, respectively.

B3: pab1876 (antibody, human IgG1, V domains shown)
VH: QVQLVQSGAEVKKPGASVKVSCKGSGYTFTDYAMYWVRQAPGQGLEWIGVIRTYSGDVTYNQKFKDRATMTVDKSISTAYMELSRLRSDDTAVYYCAKSGTVRGFAYWGQGTLVTVSS
VL: DIVMTQSPDSLAVSLGERATINCKSSQSLLNSGNQKNYLTWYQQKPGQPPKLLIYWASTRESGVPDRFSGSGSGTDFTLTISSLQAEDVAVYHCQNDYSYPYTFGQGTKLEIKR
notes: Human IgG1 with T109S (Kabat) in the light chain constant domain
On to B3, for which the binding result in assay [5] is given as “binds”; in assay [7] it was “binds”; in assay [6] it was “no binding (tested: 2 µg/ml)”. The “percentage of reduction in binding relative to wild type GITR” value in assay [2] was determined as 59%; in assay [3] it was 88%.

B4: pab1875 (antibody, V domains shown)
VH: B3 VH
VL: DIVMTQSPPTLSLSPGERVTLSCKSSQSLLNSGNQKNYLTWYQQKPGQAPRLLIYWASTRESGIPARFSGSGSGTDFTLTISSLQPEDFAVYHCQNDYSYPYTFGQGTKLEIK
B4: the binding result in assay [7] is recorded as “binds”.
